Blank lines part the entries; values can stand above or below the molecule they belong to.
Key:
[1] = target: T1, CD33-positive HL-60 cells (Homo sapiens, UniProt P20138); assay: Binding to CD33-positive HL-60 cells by flow cytometry; conditions: compared with AGC0700
T1 construct: endogenous in cells; host or cells: HL-60 cells
Method: Binding to CD33-positive HL-60 cells were studied by flow cytometry. The determination of EC50 based on the plotted curve gives an approximate value for the affinity. The commercially available mouse anti human CD33 (BD Pharmingen; #555450, 1 mg/mL) was used as a reference antibody for assessment of the affinity, including a setup with a 50:50 mixture with the mAb to be analyzed. This assay was also used to confirm that target binding affinity was not negatively affected by conjugation with the chelator.
HL-60 cells were grown in Iscove's Modified Dulbecco's Medium (IMDM; Invitrogen; #12440-046) in the presence of 20% of fetal bovine serum and penicillin/streptomycin. Approximately 20 mL cell culture was harvested by centrifugation at 4° C. for 5 min at 300 g. […] Subsequently, 20 μL of the preparation of resuspended cells was diluted 1:500 in Coulter Isoton II Diluent, and counted using a Beckman Coulter Z2 instrument (Beckman Coulter; CA, USA). […]
The mAb or conjugate to be analyzed was prepared fresh form frozen stock by shifting the storage buffer to PBS, kept at 4° C., and used within a few days after preparation. […] All samples were analysed in 96-well round or conical bottom plates. Fluorescent signals were recorded on a Beckham Coulter Cell lab Quant SC flow cytometer (Beckman Coulter; CA, USA). […]

[2] = tested on: CD33 positive HL-60 cells; assay: Th-227-induced in vitro cell cytotoxicity (CellTiter-Glo ATP viability); assay type: cell-based, human; conditions: 3 nM or 0.3 nM, specific activity 44 kBq/μg, followed to day 7
Method: In vitro cell cytotoxicity was investigated in CD33 positive HL-60 cells. AGC0715 and the control trastuzumab conjugated AGC0015 were used to chelate Th-227 to a specific activity of 44 kBq/μg. HL-60 cells were grown at 37° C. with 5% CO2, and split 1:5 three times a week. The day before the assay the culture medium (Iscove's Modified Dulbecco's Medium (IMDM) with 20% FBS and 1% Penicillin/Streptomycin) was replaced by new medium and the volume adjusted to give 400 000 cells per mL.
About, 1 600 000 cell (4 mL) were added to each well in a 6 well plate. The plate was incubated until next day for addition of labelled mAb, or culture medium. After adding labelled mAb, or culture medium, the plate was incubated for 4 additional hours. In one experiment AGC0715 or trastuzumab-AGC0015 was added to each well to a final concentration of 3 nM. In another experiment the final concentration was 0.3 nM.
Following incubation, the cells were washed twice in culture medium, and the ATP in the supernatant and in the pellet was measured. The cells were then split 1:2 and incubated in culture medium at 37° C. with 5% CO2. The same procedure, but with only one wash, was repeated at days 2, 4, and 7.

T1 sequence (P20138 18-364): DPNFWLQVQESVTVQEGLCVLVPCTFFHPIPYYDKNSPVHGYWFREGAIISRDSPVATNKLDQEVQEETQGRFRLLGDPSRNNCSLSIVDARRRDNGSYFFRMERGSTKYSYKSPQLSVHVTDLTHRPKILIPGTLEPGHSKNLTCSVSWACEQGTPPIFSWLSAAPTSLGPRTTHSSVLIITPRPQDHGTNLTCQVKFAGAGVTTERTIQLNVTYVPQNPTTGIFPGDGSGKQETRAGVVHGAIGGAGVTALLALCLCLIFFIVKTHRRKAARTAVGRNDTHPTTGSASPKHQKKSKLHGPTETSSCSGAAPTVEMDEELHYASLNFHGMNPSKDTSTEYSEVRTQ

binding affinity [1]: comparable to the non-conjugated AGC0700
B1: AGC0715: AGC0700 conjugated to the water soluble chelator AGC0015 (12) (conjugate)
heavy: QVQLVQSGAEVKKPGSSVKVSCKASGYTFTDYNMHWVRQAPGQGLEWIGYIYPYNGGTGYNQKFKSKATITADESTNTAYMELSSLRSEDTAVYYCARGRPAMDYWGQGTLVTVSSASTKGPSVFPLAPSSKSTSGGTAALGCLVKDYFPEPVTVSWNSGALTSGVHTFPAVLQSSGLYSLSSVVTVPSSSLGTQTYICNVNHKPSNTKVDKKVEPKSCDKTHTCPPCPAPELLGGPSVFLFPPKPKDTLMISRTPEVTCVVVDVSHEDPEVKFNWYVDGVEVHNAKTKPREEQYNSTYRVVSVLTVLHQDWLNGKEYKCKVSNKALPAPIEKTISKAKGQPREPQVYTLPPSRDELTKNQVSLTCLVKGFYPSDIAVEWESNGGQPENNYKTTPPVLDSDGSFFLYSKLTVDKSRWQQGNVFSCSVMHEALHNHYTQKSLSLSPG
light: DIQMTQSPSSLSASVGDRVTITCRASESVDNYGISFMNWFQQKPGKAPKLLIYAASNQGSGVPSRFSGSGSGTDFTLTISSLQPDDFATYYCQQSKEVPWTFGQGTKVEIKRTVAAPSVFIFPPSDEQLKSGTASVVCLLNNFYPREAKVQWKVDNALQSGNSQESVTEQDSKDSTYSLSSTLTLSKADYEKHKVYACEVTHQGLSSPVTKSFNRGEC
modifications: chelator AGC0015 (12) conjugated; site not stated; none, one or two chelators on a chain

B2: AGC0715-Th-227: antibody-conjugate AGC0715 chelated with Th-227 (conjugate)
heavy: B1 heavy
light: B1 light
modifications: chelator AGC0015 (12) conjugated, chelating Th-227; site not stated
cellular toxicity (cell viability by ATP) [2]: resulted in cellular toxicity

Source: patent US20150147272A1, “RADIO-PHARMACEUTICAL COMPLEXES” (Algeta ASA, priority 2012, published 2015)
